{"source": "paper PMC7531572", "binders": {"B1": {"name": "recombinant mouse FcγRIV (receptor)", "chain": "GLQKAVVNLDPKWVRVLEEDSVTLRCQGTFSPEDNSIKWFHNESLIPHQDANYVIQSARVKDSGMYRCQTALSTISDPVQLEVHMGWLLLQTTKWLFQEGDPIHLRCHSWQNRPVRKVTYLQNGKGKKYFHENSELLIPKATHNDSGSYFCRGLIGHNNKSSASFRISLGDPGSPSMFPPWHQ"}}, "molecular_target": "mAb1 wild-type (monoclonal antibody IgG1) (human)", "assay": "SPR"}
{"binder": "B1", "values": [{"measurement": "% of maximal binding response of wild-type antibody", "value": 100, "unit": "%"}]}
